# Assay results: patent publication US12404345B2, “Humanized antibodies against iRHOM2” (SCIRHOM GMBH, priority 2021, dated 2025)
# T1: human iRhom2 (Homo sapiens, UniProt Q6PJF5)
# T1 construct: MEF-DKO-hiR2-FL-WT-T7 cells stably expressing human iRhom2 full length wild type; expressed in transfected cells; host or cells: immortalized iRhom1/2-/- double knockout mouse embryonic fibroblasts, pMSCV retroviral infection
# T1 sequence (Q6PJF5 1-856): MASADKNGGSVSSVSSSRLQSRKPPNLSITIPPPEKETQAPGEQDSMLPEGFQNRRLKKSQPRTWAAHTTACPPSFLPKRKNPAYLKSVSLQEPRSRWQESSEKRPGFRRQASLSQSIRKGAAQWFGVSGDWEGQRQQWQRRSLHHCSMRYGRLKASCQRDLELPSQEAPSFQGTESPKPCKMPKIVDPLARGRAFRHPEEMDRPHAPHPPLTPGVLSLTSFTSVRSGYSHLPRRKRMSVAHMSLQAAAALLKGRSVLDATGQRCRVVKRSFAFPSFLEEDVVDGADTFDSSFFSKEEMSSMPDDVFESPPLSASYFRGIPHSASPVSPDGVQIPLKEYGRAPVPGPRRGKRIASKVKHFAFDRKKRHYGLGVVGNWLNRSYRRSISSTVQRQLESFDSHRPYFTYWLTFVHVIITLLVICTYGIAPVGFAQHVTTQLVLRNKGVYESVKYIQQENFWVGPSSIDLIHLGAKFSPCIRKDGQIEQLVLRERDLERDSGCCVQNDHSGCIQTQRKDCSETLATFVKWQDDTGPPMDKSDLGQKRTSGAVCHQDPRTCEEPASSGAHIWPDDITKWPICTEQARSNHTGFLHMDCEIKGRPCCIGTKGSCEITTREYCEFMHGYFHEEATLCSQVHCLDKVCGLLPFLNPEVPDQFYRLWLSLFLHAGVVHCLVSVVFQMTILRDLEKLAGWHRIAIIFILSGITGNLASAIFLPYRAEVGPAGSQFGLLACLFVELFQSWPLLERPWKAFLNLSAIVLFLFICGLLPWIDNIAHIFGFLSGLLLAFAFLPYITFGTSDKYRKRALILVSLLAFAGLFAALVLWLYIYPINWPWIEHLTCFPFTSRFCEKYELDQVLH
# B1: 16-B-03: humanized antibody binding human iRhom2; HCVD SEQ ID NO 1, LCVD SEQ ID NO 5 (antibody, V domains shown)
# VH: QVTLRESGPALVKPTQTLTLTCTFSGFSLSTFALGVGWIRQPPGKALEWLAHIWWDDDKYYNPALKSRLTISKDTSKNQVVLTITNMDPVDTATYYCARITTYYYGMDYWGQGTLVTVSS
# VL: EIVMTQSPDFQSVTPKEKVTITCRASQSIGNHLHWYQQKPDASPKLLIKYASQSISGVPSRFSGSGSGTDFTLTINSLEAEDAATYFCQQSYQWPLTFGQGTKLEIK
# modifications: antibody sequences
# Molecular target: T1, human iRhom2
# Assay: FACS binding to MEF-DKO-hiR2-FL-WT-T7 cells
# Conditions: antibody at 3 μg/ml
# Description: Next, immortalized iRhom1/2−/− DKO MEFs were reconstituted with a tagged form of human iRhom2 to test target recognition of humanized antibodies of the invention. Additionally, iRhom1/2−/− DKO MEFs stably expressing a tagged form of mouse iRhom2 were generated in order to determine cross-reactivity of the humanized antibodies 16-B-03, 16-B-05, 16-B-07, 23-B-04, 42-B-02 and 42-B-04 of the invention with the mouse orthologue of iRhom2.
# In brief, on day 1, Phoenix-ECO cells (American Type Culture Collection, USA) were seeded on 6-well tissue culture plates (Greiner, Germany) in standard growth medium at 8×10^5 cells per well and kept overnight at 37° C., 5% CO2. On day 2, the medium was replaced by fresh medium supplemented with chloroquine (Sigma-Aldrich, USA) at a final concentration of 25 μM. Applying the calcium phosphate method, cells were transfected with 2 μg/ml of pMSCV (Clontech, USA) empty vector, pMSCV-hiR2-FL-WT-T7 encoding human iRhom2 full length wild type C-terminally tagged with 3 consecutive copies of the T7 epitope (MASMTGGQQMG) or pMSCV-miR2-FL-WT-T7 encoding mouse iRhom2 full length wild type C-terminally tagged with 3 consecutive copies of the T7 epitope, and were kept at 37° C., 5% CO2. […]
molecule,measurement,value
B1,binding to the human iRhom2 variant on MEF-DKO-hiR2-FL-WT-T7 cells,strong binding
